Assay results as given in patent US20230174598A1 (UNIVERSITY OF FLORIDA RESEARCH FOUNDATION, published 2023).

What was measured:
[1] = biological target: SDM-Eno: enolase-1 with all seven corresponding charge-reversal mutations (bovine) (UniProt Q9XSJ4); experiment: anti-arrestin-1 (C10C10) immunoprecipitation pulldown of AlexaFluor546-labeled enolase-1; 5 µM each
bovine enolase-1 [2] = biological target: T1, bovine enolase-1 (bovine, UniProt Q9XSJ4 1-434, AlexaFluor-546 maleimide on reactive cysteines (pulldown assay only; unlabeled in the quench and activity assays)); experiment: cell-based or functional assay
bovine enolase-1 [3] = biological target: T1, bovine enolase-1; experiment: anti-arrestin-1 (C10C10) immunoprecipitation pulldown of AlexaFluor546-labeled enolase-1; 5 µM each
Experimental: E. Immunoprecipitation/Enolase Pulldown assay. The interaction between arrestin-1 and enolase-1 was assessed by using anti-arrestin-1 antibody to immunoprecipitate the arrestin-1-enolase-1 complex in which the enolase-1 was fluorescently labeled with AlexaFluor546. For this assay, 1.5 mg of Protein G-coated magnetic beads (DynaBeads, ThermoFisher), were coated with 10 μg of purified C10C10 anti-arrestin-1 monoclonal antibody (Donoso et al. (1990) S-antigen: preparation and characterization of site-specific monoclonal antibodies. Curr Eye Res 9, 343-355). Enolase-1 was labeled on its reactive cysteines with AlexaFluor-546 maleimide (ThermoFisher), reacting the enolase-1 with 100-fold molar excess of the fluorescent label. The fluorescently labeled enolase-1 was then sequentially dialyzed in LAP200^N buffer to remove any unreacted label. For the immunoprecipitation of the arrestin-1-enolase-1 complex, 5 μM arrestin-1 (or arrestin-1 variant) was mixed with 5 μM enolase-1-Alexa546 in LAP200^N in a 200 μL final volume for 2 h at 4° C., to which 10 μg of anti-arrestin-1 antibody on magnetic beads was subsequently added for 16 h with gentle rotation. The beads were magnetically captured, washed ten times with LAP200^N buffer, and then eluted with 0.1 M glycine (pH 2.5). After neutralizing the pH with 0.1 volume 1.5 M Tris base (pH 8.5), the fluorescence of the captured enolase-1-Alexa546 was measured, exciting fluorescence at 530 nm, and measuring average emission at 570-575 nm with a dual-detector fluorimeter (QM-1 steady state fluorescence spectrophotometer, Photon Technologies Inc).
The charge-pair interactions identified in example 1 were selected to further investigate the modeled arrestin-1/enolase-1 interaction. Seven charged-pair interactions (Table 3 and FIG. 4A) were identified from the model as having the closest interactions. […] Following heterologous expression and purification, each arrestin-1 mutant was then assessed for its interaction with enolase-1, using an anti-arrestin-1 immunoprecipitation assay to pulldown fluorescently labelled enolase-1.

bovine enolase-1 [4] = biological target: T1, bovine enolase-1; experiment: KI quench protection of mBBr-labeled arrestin-1; 0.25 µM arrestin-1, 5 µM (20-fold) enolase-1
Experimental: C. Quenching assay. Cysteine mutants of arrestin-1 were labeled with monobromobimane (mBBr, ThermoFisher), reacting the arrestin-1 protein with 100-fold molar excess of the fluorescent label for two hours at room temperature. The unreacted label was removed by dialyzing against three sequential changes of 500-volumes of LAP200 buffer. […] Fluorescence quenching of the mBBr fluorophore was performed using 0.25 μM mBBr-labeled arrestin-1 with 100 mM potassium iodide in the presence or absence of 5 μM bovine enolase-1 that had been heterologously expressed and purified as previously described for arrestin-1, monitoring fluorescence emission at 470 nm. To determine the degree to which enolase-1 shielded a residue from quenching by potassium iodide, a protection factor was calculated as follows: […]
C. Mapping interaction of arrestin-1 with enolase-1. […] The fluorescence emission of the mBBr-labeled arrestin-1 with and without potassium iodide was measured to determine the range of quenching by KI. The fluorescence emission quench by KI with and without enolase-1 was then measured. A quench protection factor was calculated as described in the experimental procedures (Table 2). […] When mapped onto the surface of the arrestin-1 structure, these residues largely mapped to a single surface along the “bottom” of the arrestin protein (FIG. 2B).

bovine enolase-1 [5] = biological target: T1, bovine enolase-1; experiment: titration of enolase-1 (0-12.5 µM) on 0.25 µM H10C-mBBr, KI quench protection
Description: FIGS. 1A-1B. Graph illustrating optimization of fluorescence quench and quench protection.
B. Enolase concentration. The concentration of enolase-1 that could provide protection of mBBr fluorescence from quenching by the KI was then titrated. […] 90% quench protection was selected as the criterion value, which corresponded to a 20-fold molar excess of enolase-1 to arrestin-1.

T1 sequence (Q9XSJ4 whole entry): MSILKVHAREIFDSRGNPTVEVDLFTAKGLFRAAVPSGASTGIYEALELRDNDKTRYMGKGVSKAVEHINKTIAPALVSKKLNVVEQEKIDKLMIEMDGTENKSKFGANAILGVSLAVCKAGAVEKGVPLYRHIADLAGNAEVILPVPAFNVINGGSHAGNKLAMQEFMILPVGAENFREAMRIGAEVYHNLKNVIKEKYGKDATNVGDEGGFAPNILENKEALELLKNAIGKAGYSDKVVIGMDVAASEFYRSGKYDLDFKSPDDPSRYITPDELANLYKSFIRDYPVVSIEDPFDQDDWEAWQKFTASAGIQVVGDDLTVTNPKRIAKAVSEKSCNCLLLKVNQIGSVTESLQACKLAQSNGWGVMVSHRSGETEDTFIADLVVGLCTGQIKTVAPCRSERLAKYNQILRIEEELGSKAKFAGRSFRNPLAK
Chain of bovine wild-type arrestin-1, N-terminally His(6)-tagged (P08168 other isoform, or with tags, fused parts or gaps): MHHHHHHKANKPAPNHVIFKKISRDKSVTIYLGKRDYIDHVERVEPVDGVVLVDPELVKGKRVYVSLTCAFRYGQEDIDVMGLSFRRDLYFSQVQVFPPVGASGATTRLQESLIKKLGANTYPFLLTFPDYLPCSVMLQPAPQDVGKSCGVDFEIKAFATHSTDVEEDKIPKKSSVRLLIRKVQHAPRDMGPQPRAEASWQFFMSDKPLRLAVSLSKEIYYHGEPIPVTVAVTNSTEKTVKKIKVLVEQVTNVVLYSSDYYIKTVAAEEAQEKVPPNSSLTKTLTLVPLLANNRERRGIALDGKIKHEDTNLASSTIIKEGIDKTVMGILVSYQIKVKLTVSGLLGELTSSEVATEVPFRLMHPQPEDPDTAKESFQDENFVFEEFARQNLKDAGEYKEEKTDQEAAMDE
Chain of SDM-Eno: enolase-1 with all seven corresponding charge-reversal mutations (bovine) (Q9XSJ4 whole entry, change not shown): as the sequence (Q9XSJ4 whole entry) above

Molecule	% inhibition of enolase-1 catalytic activity (bovine enolase-1 [2]) [%]	reduction of enolase-1 pulldown relative to wild-type arrestin-1 (bovine enolase-1 [3]) [%]	other results
bovine wild-type arrestin-1, N-terminally His(6)-tagged (from UniProt P08168 2-404)	–	–	decrease of pulldown compared to pulldown of wild-type enolase-1 [1]: > 80%
E361A/D362G arrestin-1 variant (bovine) (other) MHHHHHHKANKPAPNHVIFKKISRDKSVTIYLGKRDYIDHVERVEPVDGVVLVDPELVKGKRVYVSLTCAFRYGQEDIDVMGLSFRRDLYFSQVQVFPPVGASGATTRLQESLIKKLGANTYPFLLTFPDYLPCSVMLQPAPQDVGKSCGVDFEIKAFATHSTDVEEDKIPKKSSVRLLIRKVQHAPRDMGPQPRAEASWQFFMSDKPLRLAVSLSKEIYYHGEPIPVTVAVTNSTEKTVKKIKVLVEQVTNVVLYSSDYYIKTVAAEEAQEKVPPNSSLTKTLTLVPLLANNRERRGIALDGKIKHEDTNLASSTIIKEGIDKTVMGILVSYQIKVKLTVSGLLGELTSSEVATEVPFRLMHPQPAGPDTAKESFQDENFVFEEFARQNLKDAGEYKEEKTDQEAAMDE	1.3	–	–
E361G/D362A arrestin-1 variant (bovine) (other) MHHHHHHKANKPAPNHVIFKKISRDKSVTIYLGKRDYIDHVERVEPVDGVVLVDPELVKGKRVYVSLTCAFRYGQEDIDVMGLSFRRDLYFSQVQVFPPVGASGATTRLQESLIKKLGANTYPFLLTFPDYLPCSVMLQPAPQDVGKSCGVDFEIKAFATHSTDVEEDKIPKKSSVRLLIRKVQHAPRDMGPQPRAEASWQFFMSDKPLRLAVSLSKEIYYHGEPIPVTVAVTNSTEKTVKKIKVLVEQVTNVVLYSSDYYIKTVAAEEAQEKVPPNSSLTKTLTLVPLLANNRERRGIALDGKIKHEDTNLASSTIIKEGIDKTVMGILVSYQIKVKLTVSGLLGELTSSEVATEVPFRLMHPQPGAPDTAKESFQDENFVFEEFARQNLKDAGEYKEEKTDQEAAMDE	8.3	–	–
R29E arrestin-1 (bovine, His(6)-tagged charge-reversal mutant) (other) MHHHHHHKANKPAPNHVIFKKISRDKSVTIYLGKEDYIDHVERVEPVDGVVLVDPELVKGKRVYVSLTCAFRYGQEDIDVMGLSFRRDLYFSQVQVFPPVGASGATTRLQESLIKKLGANTYPFLLTFPDYLPCSVMLQPAPQDVGKSCGVDFEIKAFATHSTDVEEDKIPKKSSVRLLIRKVQHAPRDMGPQPRAEASWQFFMSDKPLRLAVSLSKEIYYHGEPIPVTVAVTNSTEKTVKKIKVLVEQVTNVVLYSSDYYIKTVAAEEAQEKVPPNSSLTKTLTLVPLLANNRERRGIALDGKIKHEDTNLASSTIIKEGIDKTVMGILVSYQIKVKLTVSGLLGELTSSEVATEVPFRLMHPQPEDPDTAKESFQDENFVFEEFARQNLKDAGEYKEEKTDQEAAMDE	–	~25	–
H10C arrestin-1 (bovine, His(6), C63A/C143A) labeled with monobromobimane (other, monobromobimane (mBBr) on Cys 10, Cysteine-substitution mutant, made in Pichia pastoris; also called H10C-mBBr) MHHHHHHKANKPAPNCVIFKKISRDKSVTIYLGKRDYIDHVERVEPVDGVVLVDPELVKGKRVYVSLTAAFRYGQEDIDVMGLSFRRDLYFSQVQVFPPVGASGATTRLQESLIKKLGANTYPFLLTFPDYLPCSVMLQPAPQDVGKSAGVDFEIKAFATHSTDVEEDKIPKKSSVRLLIRKVQHAPRDMGPQPRAEASWQFFMSDKPLRLAVSLSKEIYYHGEPIPVTVAVTNSTEKTVKKIKVLVEQVTNVVLYSSDYYIKTVAAEEAQEKVPPNSSLTKTLTLVPLLANNRERRGIALDGKIKHEDTNLASSTIIKEGIDKTVMGILVSYQIKVKLTVSGLLGELTSSEVATEVPFRLMHPQPEDPDTAKESFQDENFVFEEFARQNLKDAGEYKEEKTDQEAAMDE	–	–	F(A+E+K) (fluorescence with enolase-1 and KI) (bovine enolase-1 [4]): 10300; Pf (quench protection factor) (bovine enolase-1 [4]): 0.792; quench protection at 20-fold molar excess of enolase-1 (bovine enolase-1 [5]): 90%

Further lines, with some results ahead:

% inhibition of enolase-1 catalytic activity (bovine enolase-1 [2]) [%]	reduction of enolase-1 pulldown relative to wild-type arrestin-1 (bovine enolase-1 [3]) [%]	Molecule	other results
0.7	–	E361G/D362G arrestin-1 variant (bovine, His(6)-tagged) (other) MHHHHHHKANKPAPNHVIFKKISRDKSVTIYLGKRDYIDHVERVEPVDGVVLVDPELVKGKRVYVSLTCAFRYGQEDIDVMGLSFRRDLYFSQVQVFPPVGASGATTRLQESLIKKLGANTYPFLLTFPDYLPCSVMLQPAPQDVGKSCGVDFEIKAFATHSTDVEEDKIPKKSSVRLLIRKVQHAPRDMGPQPRAEASWQFFMSDKPLRLAVSLSKEIYYHGEPIPVTVAVTNSTEKTVKKIKVLVEQVTNVVLYSSDYYIKTVAAEEAQEKVPPNSSLTKTLTLVPLLANNRERRGIALDGKIKHEDTNLASSTIIKEGIDKTVMGILVSYQIKVKLTVSGLLGELTSSEVATEVPFRLMHPQPGGPDTAKESFQDENFVFEEFARQNLKDAGEYKEEKTDQEAAMDE	–
–	~25	D362K arrestin-1 (bovine, His(6)-tagged charge-reversal mutant) (other) MHHHHHHKANKPAPNHVIFKKISRDKSVTIYLGKRDYIDHVERVEPVDGVVLVDPELVKGKRVYVSLTCAFRYGQEDIDVMGLSFRRDLYFSQVQVFPPVGASGATTRLQESLIKKLGANTYPFLLTFPDYLPCSVMLQPAPQDVGKSCGVDFEIKAFATHSTDVEEDKIPKKSSVRLLIRKVQHAPRDMGPQPRAEASWQFFMSDKPLRLAVSLSKEIYYHGEPIPVTVAVTNSTEKTVKKIKVLVEQVTNVVLYSSDYYIKTVAAEEAQEKVPPNSSLTKTLTLVPLLANNRERRGIALDGKIKHEDTNLASSTIIKEGIDKTVMGILVSYQIKVKLTVSGLLGELTSSEVATEVPFRLMHPQPEKPDTAKESFQDENFVFEEFARQNLKDAGEYKEEKTDQEAAMDE	–
–	~25	E361K arrestin-1 (bovine, His(6)-tagged charge-reversal mutant) (other) MHHHHHHKANKPAPNHVIFKKISRDKSVTIYLGKRDYIDHVERVEPVDGVVLVDPELVKGKRVYVSLTCAFRYGQEDIDVMGLSFRRDLYFSQVQVFPPVGASGATTRLQESLIKKLGANTYPFLLTFPDYLPCSVMLQPAPQDVGKSCGVDFEIKAFATHSTDVEEDKIPKKSSVRLLIRKVQHAPRDMGPQPRAEASWQFFMSDKPLRLAVSLSKEIYYHGEPIPVTVAVTNSTEKTVKKIKVLVEQVTNVVLYSSDYYIKTVAAEEAQEKVPPNSSLTKTLTLVPLLANNRERRGIALDGKIKHEDTNLASSTIIKEGIDKTVMGILVSYQIKVKLTVSGLLGELTSSEVATEVPFRLMHPQPKDPDTAKESFQDENFVFEEFARQNLKDAGEYKEEKTDQEAAMDE	–
